Positions count from the first letter of the chain named. Where two headings read alike, the source gives them in different places.
B1: hCD4D1.22 Fc AAS + W + YTE/huSP34.39.13 AAS + SAV + R (bispecific antibody, human IgG1, lambda, L234A L235A)
chain: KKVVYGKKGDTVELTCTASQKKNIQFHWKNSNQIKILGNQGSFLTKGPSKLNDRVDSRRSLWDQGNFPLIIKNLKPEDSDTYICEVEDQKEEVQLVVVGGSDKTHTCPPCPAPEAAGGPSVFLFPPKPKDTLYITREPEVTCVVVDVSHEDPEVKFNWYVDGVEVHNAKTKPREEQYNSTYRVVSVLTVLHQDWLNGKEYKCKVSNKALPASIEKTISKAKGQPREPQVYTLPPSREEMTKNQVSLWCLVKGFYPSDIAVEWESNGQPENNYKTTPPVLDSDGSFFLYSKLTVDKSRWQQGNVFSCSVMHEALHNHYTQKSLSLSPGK
heavy: EVQLVESGGGLVQPGGSLRLSCAASGFTFNTYAMNWVRQAPGKGLEWVGRIRSKYNNYATYYADSVKSRFTISRDDSKNSLYLEMNSLRTEDTAVYYCVRHGNFGHSYVSWFAYWGQGTLVTVSSASTKGPSVFPLAPSSKSTSGGTAALGCLVKDYFPEPVTVSWNSGALTSGVHTFPAVLQSSGLYSLSSVVTVPSSSLGTQTYICNVNHKPSNTKVDKKVEPKSCDKTHTCPPCPAPEAAGGPSVFLFPPKPKDTLMISRTPEVTCVVVDVSHEDPEVKFNWYVDGVEVHNAKTKPREEQYNSTYRVVSVLTVLHQDWLNGKEYKCKVSNKALPASIEKTISKAKGQPREPQVYTLPPSREEMTKNQVSLSCAVKGFYPSDIAVEWESNGQPENNYKTTPPVLDSDGSFFLVSKLTVDKSRWQQGNVFSCSVMHEALHNRYTQKSLSLSPGK
light: QAVVTQEPSLTVSPGGTVTLTCGSSTGAVTTGHYANWVQQKPGQAPRGLIGGTSNRAPGVPARFSGSLLGGKAALTISGAQPEDEAEYYCALWYSNRWVFGGGTKLTVLGQPKAAPSVTLFPPSSEELQANKATLVCLISDFYPGAVTVAWKADSSPVKAGVETTTPSKQSNNKYAASSYLSLTPEQWKSHRSYSCQVTHEGSTVEKTVAPTECS
notes: also called 180; bispecific 180
B2: hCD4D1.22 Fc AAS + W + YTE/huSP34.41.13 AAS + SAV + R (bispecific antibody, human IgG1, lambda, L234A L235A)
chain: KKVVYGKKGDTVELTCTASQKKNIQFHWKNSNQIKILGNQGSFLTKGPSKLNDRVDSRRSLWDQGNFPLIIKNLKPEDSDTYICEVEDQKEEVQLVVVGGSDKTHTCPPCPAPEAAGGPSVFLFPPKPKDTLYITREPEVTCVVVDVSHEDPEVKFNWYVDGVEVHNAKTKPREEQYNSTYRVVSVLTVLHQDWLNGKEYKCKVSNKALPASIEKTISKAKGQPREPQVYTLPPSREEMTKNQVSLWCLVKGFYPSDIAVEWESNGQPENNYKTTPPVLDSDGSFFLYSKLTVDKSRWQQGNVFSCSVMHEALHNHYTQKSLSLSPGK
heavy: B1 heavy with R19S, E84Q
light: B1 light
B3: hCD4D1.22 Fc AAS + W + YTE/huSP34.40.13 AAS + SAV + R (bispecific antibody, human IgG1, lambda, L234A L235A)
chain: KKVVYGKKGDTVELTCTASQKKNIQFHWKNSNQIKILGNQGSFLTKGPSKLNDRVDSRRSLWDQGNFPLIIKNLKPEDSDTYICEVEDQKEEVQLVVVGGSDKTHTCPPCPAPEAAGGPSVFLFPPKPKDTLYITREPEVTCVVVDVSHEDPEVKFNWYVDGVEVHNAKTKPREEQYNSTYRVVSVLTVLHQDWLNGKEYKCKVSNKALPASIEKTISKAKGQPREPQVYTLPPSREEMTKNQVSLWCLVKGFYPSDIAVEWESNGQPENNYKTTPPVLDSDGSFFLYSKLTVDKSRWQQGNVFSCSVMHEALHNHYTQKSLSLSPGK
heavy: B1 heavy with T60A, E84Q
light: B1 light
notes: also called 188; bispecific 188
B4: hPGT121.66 AAS + W/huSP34.3.8 scFv AAS + SAV + R (bispecific antibody, human IgG1, lambda, L234A L235A)
chain: EVQLVESGGGLVQPGGSLRLSCAASGFTFNTYAMNWVRQAPGKGLEWVGRIRSKYNNYATYYADSVKGRFTISRDDSKNSLYLQMNSLRTEDTAVYYCVRHGNFGHSYVSWFAYWGQGTLVTVSSGGGGSGGGGSGGGGSGGGGSQAVVTQEPSLTVSPGGTVTLTCGSSTGAVTTGHYANWVQQKPGQAPRGLIGGTNKRAPGVPARFSGSLLGGKAALTISGAQPEDEAEYYCALWYSNRWVFGGGTKLTVLEPKSSDKTHTCPPCPAPEAAGGPSVFLFPPKPKDTLMISRTPEVTCVVVDVSHEDPEVKFNWYVDGVEVHNAKTKPREEQYNSTYRVVSVLTVLHQDWLNGKEYKCKVSNKALPASIEKTISKAKGQPREPQVYTLPPSREEMTKNQVSLSCAVKGFYPSDIAVEWESNGQPENNYKTTPPVLDSDGSFFLVSKLTVDKSRWQQGNVFSCSVMHEALHNRYTQKSLSLSPGK
heavy: QMQLQESGPGLVKPSETLSLTCSVSGASISDSYWSWIRRSPGKGLEWIGYVHKSGDTNYNPSLKSRVHLSLDTSKNQVSLSLTGVTAADSGKYYCARTLHGRRIYGIVAFNEWFTYFYMDVWGTGTQVTVSSASTKGPSVFPLAPSSKSTSGGTAALGCLVKDYFPEPVTVSWNSGALTSGVHTFPAVLQSSGLYSLSSVVTVPSSSLGTQTYICNVNHKPSNTKVDKKVEPKSCDKTHTCPPCPAPEAAGGPSVFLFPPKPKDTLMISRTPEVTCVVVDVSHEDPEVKFNWYVDGVEVHNAKTKPREEQYNSTYRVVSVLTVLHQDWLNGKEYKCKVSNKALPASIEKTISKAKGQPREPQVYTLPPSREEMTKNQVSLWCLVKGFYPSDIAVEWESNGQPENNYKTTPPVLDSDGSFFLYSKLTVDKSRWQQGNVFSCSVMHEALHNHYTQKSLSLSPGK
light: not shown
B5: h3BNC117.52.64 AAS + SAV + YTE/huSP34.3.13 scFv AAS + W + YTE (bispecific antibody, human IgG1, kappa, L234A L235A)
chain: B4 chain with N199S, K200N, M291Y, S293T, T295E, S405W, A407L, V446Y, R474H
heavy: QVQLLQSGAAVTKPGASVRVSCEASGYNIRDYFIHWWRQAPGQGLQWVGWINPKTGQPNNPRQFQGRVSLTRHASFDFDTFSFYMDLKALRSDDTAVYFCARQRSDYWDFDVWGSGTQVTVSSASTKGPSVFPLAPSSKSTSGGTAALGCLVKDYFPEPVTVSWNSGALTSGVHTFPAVLQSSGLYSLSSVVTVPSSSLGTQTYICNVNHKPSNTKVDKKVEPKSCDKTHTCPPCPAPEAAGGPSVFLFPPKPKDTLYITREPEVTCVVVDVSHEDPEVKFNWYVDGVEVHNAKTKPREEQYNSTYRVVSVLTVLHQDWLNGKEYKCKVSNKALPASIEKTISKAKGQPREPQVYTLPPSREEMTKNQVSLSCAVKGFYPSDIAVEWESNGQPENNYKTTPPVLDSDGSFFLVSKLTVDKSRWQQGNVFSCSVMHEALHNHYTQKSLSLSPGK
light: DIQMTQSPSSLSASVGDTATITCQANGYLNWYQQRRGKAPKLLIYDGSKLERGVPSRFSGRRWGQEYNLTINNLQPEDIATYFCQVYEFVVPGTRLDLKRTVAAPSVFIFPPSDEQLKSGTASVVCLLNNFYPREAKVQWKVDNALQSGNSQESVTEQDSKDSTYSLSSTLTLSKADYEKHKVYACEVTHQGLSSPVTKSFNRGEC
B6: hPGT121.66 AAS + W/huSP34.13.8 scFv AAS + SAV + R (bispecific antibody, human IgG1, lambda, L234A L235A)
chain: B4 chain with N30S, D64A, S80T
heavy: B4 heavy
light: not shown
notes: also called 261; bispecific 261
B7: hPGT121.66 AAS + W/huSP34.34.3 scFv AAS + SAV + R (bispecific antibody, human IgG1, lambda, L234A L235A)
chain: not shown
heavy: B4 heavy
light: not shown
B8: hPGT121.66 AAS + W/huSP34.28.8 scFv AAS + SAV + R (bispecific antibody, human IgG1, lambda, L234A L235A)
chain: B4 chain with R19S, N30S, D64A, G68S, S80T
heavy: B4 heavy
light: not shown
notes: also called 271; bispecific 271
B9: hPGT121.66 AAS + W/huSP34.27.8 scFv AAS + SAV + R (bispecific antibody, human IgG1, lambda, L234A L235A)
chain: B4 chain with R19S, N30S, T60E, D64A, S80T
heavy: B4 heavy
light: not shown
notes: also called 270; bispecific 270
B10: hPGT121.66 AAS + W/huSP34.19.8scFv AAS + SAV + R (bispecific antibody, human IgG1, lambda, L234A L235A)
chain: B4 chain with N30S, D64A, S80T, Q84E
heavy: B4 heavy
light: not shown
B11: hPGT121.66 AAS + W/huSP34.34.11 scFv AAS + SAV + R (bispecific antibody, human IgG1, lambda, L234A L235A)
chain: B4 chain with D64A, R89K, V95M, I222L, R242L
heavy: B4 heavy
light: not shown
B12: hPGT121.66 AAS + W/huSP34.26.8scFv AAS + SAV + R (bispecific antibody, human IgG1, lambda, L234A L235A)
chain: B4 chain with R19S, N30S, T60A, D64A, S80T
heavy: B4 heavy
light: not shown
B13: hPGT121.66 AAS + W/huSP34.33.8 scFv AAS + SAV + R (bispecific antibody, human IgG1, lambda, L234A L235A)
chain: B4 chain with N30S, D64A, G68S, S80T, Q84E
heavy: B4 heavy
light: not shown
B14: hPGT121.66 AAS + W/huSP34.34.10 scFv AAS + SAV + R (bispecific antibody, human IgG1, lambda, L234A L235A)
chain: B4 chain with D64A, R89K, V95M, E152P, L214S
heavy: B4 heavy
light: not shown
B15: hPGT121.66 AAS + W/huSP34.14.8scFv AAS + SAV + R (bispecific antibody, human IgG1, lambda, L234A L235A)
chain: B4 chain with R19S, N30S, D64A, S80T
heavy: B4 heavy
light: not shown
B16: hPGT121.66 AAS + W/huSP34.25.8scFv AAS + SAV + R (bispecific antibody, human IgG1, lambda, L234A L235A)
chain: B4 chain with N30S, T60A, D64A, G68S, S80T
heavy: B4 heavy
light: not shown
B17: hPGT121.66 AAS + W/huSP34.34.12 scFv AAS + SAV + R (bispecific antibody, human IgG1, lambda, L234A L235A)
chain: B4 chain with D64A, R89K, V95M, E152P, G204W, V205T, L214S
heavy: B4 heavy
light: not shown
B18: hPGT121.66 AAS + W/huSP34.3.13 scFv AAS + SAV + R (bispecific antibody, human IgG1, lambda, L234A L235A)
chain: B4 chain with N199S, K200N
heavy: B4 heavy
light: not shown

Key:
[1] = biological target: T1, biotinylated Human CD3E and CD3D (Acro Biosystems Cat CDD-H82W1) (human, UniProt P07766 23-126; P04234 22-105); test: SPR (Biacore 4000), CD3 captured on streptavidin chip;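 note: bispecific antibodies or Fabs injected at several concentrations over CD3 surfaces of varying density, sensorgrams fitted with a simple kinetic model to obtain association, dissociation and equilibrium constants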
T1 construct: also called biotinylated CD3

[2] = biological target: T2, biotinylated CD3 epsilon:delta heterodimer protein (Amsbio AMS.CDD-H52WO) (Homo sapiens (Human), UniProt P07766 23-126; P04234 22-105); test: BLI (Octet), CD3 on SA sensor, bispecific analyte
T2 construct: also called CD3 heterodimer

[3] = biological target: T2, biotinylated CD3 epsilon:delta …; test: BLI (Octet), CD3 on SA sensor, bispecific analyte; remark: listed apart in the source

Binder | Kd [1] [nM] | koff [1] [s⁻¹] | kon [1] [M⁻¹ s⁻¹] | Kd [2] [nM] | koff [2] [s⁻¹] | kon [2] [M⁻¹ s⁻¹] | Kd [3] [nM] | koff [3] [s⁻¹] | kon [3] [M⁻¹ s⁻¹]
B1 | 2.5 | 0.0049 | 2e+06 | – | – | – | – | – | –
B2 | 2 | 0.0047 | 2.4e+06 | – | – | – | – | – | –
B3 | 1.6 | 0.0036 | 2.2e+06 | – | – | – | – | – | –
B4 | 2.5 | 0.0071 | 2.8e+06 | 7.1 | 0.000475 | 66600 | – | – | –
B5 | 2.7 | 0.0087 | 3.3e+06 | – | – | – | – | – | –
B6 | – | – | – | 20.8 | 0.000947 | 48500 | – | – | –
B7 | 43 | 0.017 | 390000 | 10.3 | 0.00619 | 620000 | – | – | –
B8 | – | – | – | – | – | – | 15.8 | 0.00134 | 84600
B9 | – | – | – | – | – | – | 13.2 | 0.001 | 76300
B10 | – | – | – | – | – | – | 14.7 | 0.00104 | 72200
B11 | 3.9 | 0.0129 | 3.3e+06 | 16 | 0.00172 | 116000 | – | – | –
B12 | – | – | – | – | – | – | 9.3 | 0.000504 | 55900
B13 | – | – | – | – | – | – | 15.3 | 0.00118 | 77400
B14 | 3.9 | 0.0102 | 2.6e+06 | 8.4 | 0.00083 | 120000 | – | – | –
B15 | – | – | – | – | – | – | 24.3 | 0.000932 | 39000
B16 | – | – | – | – | – | – | 10.6 | 0.000928 | 87600
B17 | 32 | 0.0119 | 370000 | 9.9 | 0.00431 | 433000 | – | – | –
B18 | 2.4 | 0.0084 | 3.6e+06 | 16.8 | 0.00171 | 106000 | – | – | –
